# Where “and” joins values, the source holds several entries; their conditions need not be identical. Equal entries are not always repeated.
# B1: mouse anti-human IL-23p19 antibody 39G2 (antibody, V domains shown)
# VH: QVQLQQPGAELVRPGASVKLSCKASGYSFTSSWMNWVKQRPGQGLEWIGMIHPSDSETRTNQKFKDKATLTVDKSSSTAYMQLSSPTSEDSAVYYCARGMITAPTVYWGQGTLVTVSA
# VL: DIVLTQSPASLAVSLGQRATISCRASKSVSTSAYSYFHWYQQKPGQPPKLLIYLASNLESGVPARFSGSGSGTDFTLNIHPVEEEDAATYYCQHSRELPWTFGGGTKLEITP
# B2: mouse anti-human IL-23p19 antibody 35F12 (antibody, V domains shown)
# VH: QVQLQQPGAELMRPGASVRLSCKASGYSFTTSWMNWVKQRPGQGLEWIGMIHPSDSETRLNQNFKDKATLTVDRSSSTAYMQLNSPTSEDSAVYYCARGMITAPSVYWGQGTLVTVSA
# VL: DIVLTQSPASLAVSLGQRATISCRASKSVSTSAYSYFHWYQQKPGQPPKLLIYLASNLESGVPARFSGSGSGTDFTLNIHPVEEGDAATYYCQHSRELPWTFGGGTKLEITR
# B3: humanized anti-human IL-23p19 antibody hum7G10 (antibody, human IgG1, kappa, V domains shown)
# VH: QVQLVQSGAEVKKPGASVKVSCKASGYTFTSNVMHWVRQAPGQGLEWMGYINPYNDGTKYNEKFKGRVTMTTDTSTSTAYMELRSLRSDDTAVYYCARNWDVAYWGQGTLVTVSS
# VL: DIQMTQSPSSLSASVGDRVTITCRASQSISDYLHWYQQKPGKAPKLLIYYASQSISGVPSRFSGSGSGTDFTLTISSLQPEDFATYYCQNGHSFPFTFGQGTKVEIKR
# B4: humanized anti-human IL-23p19 antibody hum6H12 (antibody, human IgG1, kappa, V domains shown)
# VH: QVQLVQSGAEVKKPGASVKVSCKASGYTFNRYLIHWVRQAPGQGLEWMGYINPNNAGTNYNEKFKGRVTMTTDTSTSTAYMELRSLRSDDTAVYYCARNWDQAYWGQGTLVTVSS
# VL: DIQMTQSPSSLSASVGDRVTITCRASQSISDYLHWYQQKPGKAPKLLIYYTSQSISGVPSRFSGSGSGTDFTLTISSLQPEDFATYYCQNGHSFPFTFGQGTKVEIKR
# B5: mouse anti-human IL-23p19 antibody 3D7 (antibody, V domains shown)
# VH: QVQLQQSGPELVKPGASVKISCKASGYSFTSYYIHWVKQRPGQGLEWIGWIFPGSGNTKYNEKFKGKATLTADTSSTTAYMQLSSLTSEASAVYFCAREGLHYFGLYAMDYWGHGTSVTVSS
# VL: DIQMTQTTSSLSASLGDRVTISCSASQGISNYLNWFQQKPDGTVKLLIYYTSSLHSGVPSRFSGSGSGTDYSLTISNLEPEDIATYYCQQYSKLPYTFGGGTKLEIKR
# B6: mouse anti-human IL-23p19 antibody 7G10 (antibody, V domains shown)
# VH: EVQLQQSGPELVKPGASVKMSCKASGYTFTSNVMHWVKQKPGQGLEWIGYINPYNDGTKYNEKFKGKATLTSDKSSSTAYMELSSLTSEDSAVYYCARNWDVAYWGQGTLVTVSA
# VL: DIVMTQSPATLSVTPGDRVSLSCRASQSISDYLHWYRQKSHESPRLLIKYASQSISGIPSRFSGSGSGSDFTLSINSVEPEDVGVYYCQNGHSFPFTFGSGTKLEIKR
# B7: mouse anti-human IL-23p19 antibody 6H12 (antibody, V domains shown)
# VH: EVHLQQSGPELVKPGASVKMSCKASGYTFNRYLIHWVKQKPGQGLEWIGYINPNNDGTNYNEKFKGKATLTSDKSSSTAYMELSSLTSEDSAVYYCAANWDQAYWGQGTLVTVSA
# VL: DIVMTQSPATLSVTPGDRVSLSCRASQSISDYLHWYQQKSHESPRLLIKYTSQSISGIPSRFSGSGSGSDFTLSINSVEPEDVGVYYCQNGHSFPFTFGSGTKLEIKR
# B8: mouse anti-human IL-23p19 antibody 33B12 (antibody, V domains shown)
# VH: QVQLQQSGAELARPGASVKLSCKASGYTFTSYSLKWVKQRTGQGLEWIGEIHPRSGNTHYNEKFKGKATLTADKSSSTAYMDLRSLTSEDSAVYFCATNWDLGYWGQGTTITVSS
# VL: DIVLTQSPATLSVTPGDRVSLSCRASQSISDYLHWFQQRSHESPRLLIKYASQSISGIPSRFSGSGSGSDFTLSINSVEPEDVGVYYCQNGHSFPFTFGSGTKLEIKR
# B9: mouse anti-human IL-23p19 antibody 13B5 (antibody, V domains shown)
# VH: EVQLQQSGPELVKPGASVKMSCKASGYTFTRYLMHWVKQKPGQGLEWIGYINPYNDGTNYNEKFKGKATLTSDKSSSTAYMELSSLTSEDSAVYYCARNWDVGGYWGQGTTLTVSS
# VL: DIVMTQSPATLSVTPGDRVSLSCRASQSISDYLHWYQQKSHESPRLLIKYASQSISGIPSRFSGSGSGSDFTLSINSVEPEDVGVYYCQNGHSFPFTFGSGTKLEIKR
# What was measured:
# Assay in all cases: cell-based or functional assay
# [1] = target: "Elastikine" human IL-23 (single chain FLAG-tag peptide:GLU-tag peptide:human p40:elasti-linker:human p19, … (human, UniProt P29460 23-328))
# [2] = target: T1, "Non-linked" human IL-23 (human p40 coexpressed in 293T cells with human p19:FLAG-tag peptide) (human, UniProt P29460 23-328)
# T1 sequence 1: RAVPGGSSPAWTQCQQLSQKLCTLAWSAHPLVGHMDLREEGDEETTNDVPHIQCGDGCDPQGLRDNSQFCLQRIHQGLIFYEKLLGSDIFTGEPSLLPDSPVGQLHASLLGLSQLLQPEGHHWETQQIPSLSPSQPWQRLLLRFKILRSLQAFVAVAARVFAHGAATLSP
# T1 sequence 2: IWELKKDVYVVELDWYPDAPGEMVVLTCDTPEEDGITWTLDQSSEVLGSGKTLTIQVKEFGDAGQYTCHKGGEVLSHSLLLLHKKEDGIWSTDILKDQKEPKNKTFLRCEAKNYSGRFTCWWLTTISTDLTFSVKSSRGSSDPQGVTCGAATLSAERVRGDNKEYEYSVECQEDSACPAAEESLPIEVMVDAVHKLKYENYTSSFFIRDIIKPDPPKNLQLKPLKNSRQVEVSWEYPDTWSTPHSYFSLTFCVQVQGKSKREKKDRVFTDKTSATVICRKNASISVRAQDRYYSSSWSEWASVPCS
# [3] = target: T2, non-tagged, non-linked native human IL-23p19/p40 coexpressed in SF9 cells (eBioscience CAT No. 34-8239) (human, UniProt P29460 23-328)
# T2 sequence 1: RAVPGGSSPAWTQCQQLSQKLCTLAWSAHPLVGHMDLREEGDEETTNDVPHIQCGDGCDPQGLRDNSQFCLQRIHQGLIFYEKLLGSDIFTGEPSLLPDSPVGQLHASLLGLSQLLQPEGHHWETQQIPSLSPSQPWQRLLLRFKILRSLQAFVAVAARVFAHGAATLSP
# T2 sequence 2: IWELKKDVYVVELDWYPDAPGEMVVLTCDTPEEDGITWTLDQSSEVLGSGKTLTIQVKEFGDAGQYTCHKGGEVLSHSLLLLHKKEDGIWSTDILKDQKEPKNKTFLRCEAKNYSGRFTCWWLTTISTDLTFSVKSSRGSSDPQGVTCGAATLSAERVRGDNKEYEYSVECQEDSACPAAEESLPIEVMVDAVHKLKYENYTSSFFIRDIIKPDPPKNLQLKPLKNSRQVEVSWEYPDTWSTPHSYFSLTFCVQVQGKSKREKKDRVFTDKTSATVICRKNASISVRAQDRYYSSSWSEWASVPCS
# [4] = target: "Elastikine" human IL-23 (single chain FLAG-tag peptide:GLU-tag peptide:human p40:elasti-linker:human p19, … (human, UniProt P29460 23-328)); remark: listed apart in the source
Binder,IC50 for blocking of Ba/F3 cell proliferation [1],IC50 for blocking of Ba/F3 cell proliferation [2] [nM],IC50 for blocking of Ba/F3 cell proliferation [3],IC50 for blocking of Ba/F3 cell proliferation [4] [nM]
B1,9 nM and 5 nM,67,11 nM,–
B2,15 nM and 5 nM,73,12 nM,–
B3,–,10000,7800 nM,29
B4,–,4000,3200 nM,27
B5,3 nM,37,2 nM,–
B6,22 nM and 18 nM,3000,–,–
B7,11 nM and 9 nM,1500,1300 nM and 500 nM,–
B8,4 nM and 3 nM,193,57 nM,–
B9,7 nM and 5 nM,113,31 nM,–

# Reference: patent US20070048315A1 (SCHERING, published 2007)
